B1: Fractalkine (Homo sapiens), P78423 (parent)
chain: MAPISLSWLLRLATFCHLTVLLAGQHHGVTKCNITCSKMTSKIPVALLIHYQQNQASCGKRAIILETRQHRLFCADPKEQWVKDAMQHLDRQAAALTRNGGTFEKQIGEVKPRTTPAAGGMDESVVLEPEATGESSSLEPTPSSQEAQRALGTSPELPTGVTGSSGTRLPPTPKAQDGGPVGTELFRVPPVSTAATWQSSAPHQPGPSLWAEAKTSEAPSTQDPSTQASTASSPAPEENAPSEGQRVWGQGQSPRPENSLEREEMGPVPAHTDAFQDWGPGSMAHVSVVPVSSEGTPSREPVASGSWTPKAEEPIHATMDPQRLGVLITPVPDAQAATRRQAVGLLAFLGLLFCLGVAMFTYQSLQGCPRKMAGEMAEGLRYIPRSCGSNSYVLVPV

Variants of: B1
Conditions: with cx3c1_human CX3CR1, P49238
Chain of cx3c1_human CX3CR1, P49238 (P49238 whole entry): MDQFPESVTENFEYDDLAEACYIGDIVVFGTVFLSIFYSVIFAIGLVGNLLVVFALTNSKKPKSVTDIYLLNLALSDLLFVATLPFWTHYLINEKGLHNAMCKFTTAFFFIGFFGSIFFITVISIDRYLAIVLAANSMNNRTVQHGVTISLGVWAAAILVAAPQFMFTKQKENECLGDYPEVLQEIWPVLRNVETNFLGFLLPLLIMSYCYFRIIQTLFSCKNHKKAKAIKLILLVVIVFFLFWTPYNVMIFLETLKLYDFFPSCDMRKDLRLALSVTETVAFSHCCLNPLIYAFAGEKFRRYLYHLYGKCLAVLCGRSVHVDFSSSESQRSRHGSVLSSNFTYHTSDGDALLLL

| effect of a mutation on the interaction | Variant |
| --- | --- |
| with no effect | MAPISLSWLLRLATFCHLTVLLAGQHHGVTKCNITCSKMTSKIPVALLIHYQQNQASCGAAAIILETRQHRLFCADPKEQWVKDAMQHLDRQAAALTRNGGTFEKQIGEVKPRTTPAAGGMDESVVLEPEATGESSSLEPTPSSQEAQRALGTSPELPTGVTGSSGTRLPPTPKAQDGGPVGTELFRVPPVSTAATWQSSAPHQPGPSLWAEAKTSEAPSTQDPSTQASTASSPAPEENAPSEGQRVWGQGQSPRPENSLEREEMGPVPAHTDAFQDWGPGSMAHVSVVPVSSEGTPSREPVASGSWTPKAEEPIHATMDPQRLGVLITPVPDAQAATRRQAVGLLAFLGLLFCLGVAMFTYQSLQGCPRKMAGEMAEGLRYIPRSCGSNSYVLVPV [K60A;R61A] |
| disrupting interaction strength | MAPISLSWLLRLATFCHLTVLLAGQHHGVTKCNITCSKMTSKIPVALLIHYQQNQASCGKRAIILETRQHALFCADPKEQWVKDAMQHLDRQAAALTRNGGTFEKQIGEVKPRTTPAAGGMDESVVLEPEATGESSSLEPTPSSQEAQRALGTSPELPTGVTGSSGTRLPPTPKAQDGGPVGTELFRVPPVSTAATWQSSAPHQPGPSLWAEAKTSEAPSTQDPSTQASTASSPAPEENAPSEGQRVWGQGQSPRPENSLEREEMGPVPAHTDAFQDWGPGSMAHVSVVPVSSEGTPSREPVASGSWTPKAEEPIHATMDPQRLGVLITPVPDAQAATRRQAVGLLAFLGLLFCLGVAMFTYQSLQGCPRKMAGEMAEGLRYIPRSCGSNSYVLVPV [R71A] |
